Stoichiometry N data for one substance are collected here from paper PMC12774641.

The experiment addresses SpβL1 Namat (nicotinamide ADP-ribose transferase), untagged (SpβL1 phage). Description: mass photometry; Refeyn mass photometry; 50 nM Namat after gel filtration.

The substance “SpβL1 Namat (nicotinamide ADP-ribose transferase), untagged (enzyme)” had a stoichiometry N of 2.
